B1: PA15P1D05 (antibody, human IgG1, V domains shown)
VH: QVHLVESGGGVVQPGRSLGLSCVASGFTFNYYAIHWVRQAPGKGLEWVAVVSFDGNIIYYADSVKGRFNISRDNSKNTVNLQMNSLRPDDTAVYYCVRDGEYCSGGNCYWGDFDHWGQGSLVTVSP
VL: EIVLTQSPATLSLSPGERATLSCRASQSISSEYLTWFQQKPGQAPRLLIYGAFNRATGIPDRFSGSGSGTDFTLTISSLEPEDFAVYYCQQYANWWTFGQGTKVEIK
B2: PA15P1D12 (antibody, human IgG1, V domains shown)
VH: QVHLVESGGGVVQPGRSLGLSCAASGFTFNYYAIHWVRQAPGKGLEWVAVVSFDGNIIYYADSVKGRFNISRDNSKNTVNLQMNSLRADDTAVYYCVRDGEYCSGGNCYWGDFDYWGQGTLVTVSP
VL: EIVLTQSPGTLSLSPGERATLSCRASQSISSEYLTWFQQKPGQAPRLLIYGAFNRATGIPDRFSGSGSGTDFTLTISSLEPEDFAVYYCQQYANWWTFGQGTKVEIK
B3: PA13P1H08 variant rCDR1-N (antibody, human IgG1, V domains shown)
VH: QVQLVNSGGGVVQPGRSLRLSCVASGFTFSSYGIHWVRQAPGKGLEWVAVISNDGEKSESADSVKGRFTPSRDNSKNTVYLQMNNLRVEDTAVYYCAKVLDYSRYSYYYGMDVWGQGTTVIVSS
VL: EIVLTQSPGTLSLSPGGRGTLSCRTSQTINNAHLAWYQHKPGQAPRLLIYGSSERATGVPDRFSGSGSGSDFTLTISSLEAEDFAVYYCQHYGRSPPYTFGPGTKLDIK
B4: PA13P1H08 variant rCDR2-N (antibody, human IgG1, V domains shown)
VH: QVQLVNSGGGVVQPGRSLRLSCVASGFTFSTFGIHWVRQAPGKGLEWVAVISYDGSNKESADSVKGRFTPSRDNSKNTVYLQMNNLRVEDTAVYYCAKVLDYSRYSYYYGMDVWGQGTTVIVSS
VL: EIVLTQSPGTLSLSPGGRGTLSCRTSQTINNAHLAWYQHKPGQAPRLLIYGSSERATGVPDRFSGSGSGSDFTLTISSLEAEDFAVYYCQHYGRSPPYTFGPGTKLDIK
B5: PA13P1H08 variant rFWRs-N (antibody, human IgG1, V domains shown)
VH: QVQLVESGGGVVQPGRSLRLSCAASGFTFSTFGMHWVRQAPGKGLEWVAVISNDGEKSYYADSVKGRFTISRDNSKNTLYLQMNSLRAEDTAVYYCAKVLDYSRYSYYYGMDVWGQGTTVTVSS
VL: EIVLTQSPGTLSLSPGGRGTLSCRTSQTINNAHLAWYQHKPGQAPRLLIYGSSERATGVPDRFSGSGSGSDFTLTISSLEAEDFAVYYCQHYGRSPPYTFGPGTKLDIK
B6: PA12P3D08 (antibody, human IgG1, V domains shown)
VH: QVQLVESGGGVVQPGKSLRLSCAASAFTFRRFAMHWVRQAPGKGLEWVAVISDNGLREDYEDSVKGRFTISRDNSQNTLYLQMNGLRAEDTAVYYCAKVLDYNEYSLYFGMDVWGQGTTVTVSS
VL: EVVLTQSPATLSLSPGERATLSCRTSQAISNNFLAWYQQRPGQPPRLLIYASSRRATDTPDRFTGSGSGTDFTLTITRLEPEDFAVYFCQYYSDSPPYTFGPGTKLEIK
B7: PA12P1C07 (antibody, human IgG1, V domains shown)
VH: QVQLEESGGGVVQPGKSLRLSCVASAFTFKRFAMHWVRQAPGKGLEWVAVISDNGLREDYEDSVKGRFTISRDNSKDTLYLQMNSLRPEDTAIYYCAKVLDYSEYSLYFGMDVWGQGTTVLVSS
VL: EIVLTQSPAILSLSPGDRATLSCRTSQTVNSNFLAWYQQKPGQAPRLLIYGASRRAIDIPDRFTGSGSGTEFTLTIARLEPEDFAVYSCQHYSDSPPYTFGQGTKLEIK

Columns and labels:
[1] = target: Ara h 2 (purified natural peanut allergen) (Arachis hypogaea) (UniProt Q6PSU2); assay: biolayer interferometry
[2] = target: Ara h 2 (purified natural peanut allergen) (Arachis hypogaea) (UniProt Q6PSU2); assay: BLI, antibody on anti-human IgG Fc sensors, Ara h 2 as analyte, top 6 nM
[3] = target: Ara h 2 (purified natural peanut allergen) (Arachis hypogaea) (UniProt Q6PSU2); assay: not named there (biolayer interferometry in Example 1)

Sequence of Ara h 2 (purified natural peanut allergen) (Arachis hypogaea) (Q6PSU2 22-172): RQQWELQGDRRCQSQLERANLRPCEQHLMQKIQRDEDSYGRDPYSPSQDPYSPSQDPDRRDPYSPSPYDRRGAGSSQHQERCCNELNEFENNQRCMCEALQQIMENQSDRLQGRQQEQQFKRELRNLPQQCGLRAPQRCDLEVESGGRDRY

Row | Binder | Kd [1] [nM] | Kd [2] [nM] | Kd [3] [nM]
1 | B1 | < 1 | 0.54 | –
2 | B2 | < 1 | 0.65 | –
3 | B3 | – | 0.016 | –
4 | B4 | – | 0.008 | < 1
5 | B5 | – | 0.039 | –
6 | B6 | – | 0.014 | –
7 | B7 | – | 0.017 | –
